This passage reports self-cleavage results from the RNAGym collection of RNA variant scans (doi:10.7554/elife.90254).

B1: LINE1-full (parent)
chain: UACGUAGGUGGUUUUCCCCUGAUAGUGCUAAGGGGGCCUGGAAGUUUGGACUGGGCAGAGCUCAACACAGCGUGGCAAAGUGGCUGUGGCUAGACUGCCUCUCUGGAUUCCUCGUCACUCAGCAGGGCAUCUCUGAGAGAAAUGCC

This series covers variants of B1. The series can be described thus: self-cleavage, relative activity (ratio to wild type); higher = more cleavage; in vitro, sequencing; the parent is a self-cleaving ribozyme.
Regarding G34A U87G, the self-cleavage turned out to be 0.2.

With G34A A50U, the self-cleavage was 0.38.

Consider G34A A50G, for which the self-cleavage was found to be 0.87.

In the case of A30U U143A, the self-cleavage came out at 0.77.

In the case of A31G A65G, the self-cleavage turned out to be 0.

Take G34A A78U: the self-cleavage was determined as 1.75.

With G34A A78G, the self-cleavage came out at 1.27.

Take A31U A107G: the self-cleavage worked out at 1.28.

As for A31C A142G, the self-cleavage stood at 0.53.

In the case of G32A U130C, the self-cleavage was 1.26.

Take G34U U46A: the self-cleavage came out at 1.32.

In the case of G34A G82U, the self-cleavage worked out at 2.19.

On to A31U A121U, for which the self-cleavage came to 0.51.

With A31U A121G, the self-cleavage was determined as 1.

For the variant G32A U119A, the self-cleavage came out at 1.1.

As for G33U U62C, the self-cleavage was found to be 0.04.

As for A31C U100C, the self-cleavage was determined as 0.92.

A31G U119C: the self-cleavage was found to be 1.94.

In the case of A31G U119A, the self-cleavage was determined as 1.39.

For G32A C101U, the self-cleavage came to 0.95.

G34A A59G: the self-cleavage was 0.07.

Turning to A31C C71A, the self-cleavage was 0.19.

For the variant G33U U39C, the self-cleavage was 1.16.

For A31G C98A, the self-cleavage amounted to 0.

Take G32U U100C: the self-cleavage was 2.02.

Turning to G33U A121G, the self-cleavage was found to be 0.64.

In the case of G34A A57C, the self-cleavage came out at 0.07.

G34A A77U: the self-cleavage came to 1.33.

On to G33U A136U, for which the self-cleavage came out at 1.27.

On to G34A C37U, for which the self-cleavage is 1.1.

Regarding G33A U100C, the self-cleavage is 1.28.

On to G32C U104G, for which the self-cleavage was determined as 1.26.

On to A31C U134C, for which the self-cleavage was found to be 1.

For G34U U62C, the self-cleavage was determined as 0.02.

For A31C U39C, the self-cleavage came to 1.19.

G33U U132G: the self-cleavage is 1.74.

As for G32A A69U, the self-cleavage stood at 0.02.

Regarding G32A A69G, the self-cleavage stood at 0.37.

For the variant G32U C113U, the self-cleavage came out at 0.49.

As to G32U C113A, the self-cleavage came out at 0.96.

Turning to G33A A59U, the self-cleavage came out at 0.65.

For G33A A59G, the self-cleavage is 0.12.

Regarding A31U G58A, the self-cleavage is 0.05.

With A31G A117U, the self-cleavage amounted to 1.

As for A31G A117G, the self-cleavage came out at 1.84.

Regarding G34A U73A, the self-cleavage was found to be 0.8.

Turning to G33U A138G, the self-cleavage was 1.68.

For A31U U87A, the self-cleavage worked out at 0.14.

In the case of A31G G82A, the self-cleavage was determined as 2.09.

In the case of G32A A141G, the self-cleavage amounted to 1.95.

A31U U112C: the self-cleavage came to 1.27.

Consider G33U A43G, for which the self-cleavage came out at 0.64.

As to A31G U96A, the self-cleavage was 0.11.

Regarding A31G U96C, the self-cleavage worked out at 0.16.

As to G33C A142C, the self-cleavage was 1.28.

On to G33U A107G, for which the self-cleavage was determined as 1.74.

G35A A69G: the self-cleavage amounted to 0.21.

In the case of G35A A69U, the self-cleavage came out at 0.02.

In the case of G34U C63A, the self-cleavage came out at 0.04.

As for A31U U45G, the self-cleavage was found to be 1.5.

Take G35A A136G: the self-cleavage stood at 1.21.

For G33A G83A, the self-cleavage is 0.92.

Turning to A31U A94G, the self-cleavage was found to be 0.36.

As to G33U U104A, the self-cleavage is 0.93.

For the variant G33U U104C, the self-cleavage is 1.62.

Regarding G34U C90U, the self-cleavage came out at 0.

With G32U A67U, the self-cleavage stood at 0.13.

Take G35A A65G: the self-cleavage is 0.05.

On to A31U A77G, for which the self-cleavage came to 1.39.

For A31G U47A, the self-cleavage turned out to be 0.94.

For A31G U47C, the self-cleavage was determined as 0.79.

Take G33C A64U: the self-cleavage amounted to 0.64.

On to A31G G125U, for which the self-cleavage stood at 0.96.

Consider A31U A43G, for which the self-cleavage worked out at 0.9.

Take G33U U87C: the self-cleavage worked out at 0.09.

Take G35A G106A: the self-cleavage came out at 1.21.

As to A31U U96C, the self-cleavage amounted to 0.23.

With A31U U96A, the self-cleavage was 0.07.

As for G33A U62C, the self-cleavage is 0.05.

Turning to G33A U62A, the self-cleavage was found to be 0.01.

For G33U U96C, the self-cleavage turned out to be 0.17.

For the variant G33U U96A, the self-cleavage came to 0.06.

On to G32A C128A, for which the self-cleavage turned out to be 0.61.

On to G33A U39C, for which the self-cleavage was found to be 1.16.

For A31G C110U, the self-cleavage is 0.51.

With G32A A94C, the self-cleavage is 0.04.

As to G32U U96C, the self-cleavage came to 0.08.

In the case of A31G G135A, the self-cleavage amounted to 1.09.

For the variant G34U A94G, the self-cleavage was 0.26.

For the variant G35A U85C, the self-cleavage turned out to be 0.09.

Regarding G33A A142U, the self-cleavage came out at 1.43.

Regarding G32C G33U, the self-cleavage was determined as 1.02.

G35A A117U: the self-cleavage worked out at 0.56.

G35A A117G: the self-cleavage is 1.7.

For the variant A31G A141G, the self-cleavage amounted to 1.1.

G35A U100C: the self-cleavage is 1.36.

A31U U73A: the self-cleavage is 1.33.

G32A A107G: the self-cleavage came to 1.09.

Take G34A A124G: the self-cleavage came to 0.

As to G34A A124U, the self-cleavage stood at 1.32.

Consider A31G A43G, for which the self-cleavage was 0.98.

As to G32A U100C, the self-cleavage was 1.34.

For the variant G32A U100A, the self-cleavage stood at 0.74.

As for G33U A129G, the self-cleavage amounted to 1.34.

As to A31U A129U, the self-cleavage came out at 0.33.

Regarding G35A A79G, the self-cleavage stood at 1.36.

In the case of G32A G83U, the self-cleavage stood at 0.83.

In the case of G33A A67G, the self-cleavage amounted to 0.63.

For the variant G33A U143A, the self-cleavage came to 1.07.

Regarding G33A U143C, the self-cleavage stood at 1.44.

Take A31G U109C: the self-cleavage amounted to 0.79.

For G32A G86U, the self-cleavage was 0.12.

In the case of G33U G126C, the self-cleavage was 1.21.

For G35A A57U, the self-cleavage was determined as 0.05.

With G32C A138G, the self-cleavage stood at 0.84.

On to A31U G88U, for which the self-cleavage came out at 0.15.

As to A31C U45G, the self-cleavage worked out at 0.

In the case of A31G U112C, the self-cleavage stood at 1.3.

With A31U A50G, the self-cleavage came out at 0.16.

G34C U143C: the self-cleavage amounted to 2.

On to G33C C71U, for which the self-cleavage turned out to be 1.93.

G32A A78U: the self-cleavage is 1.32.

Turning to G32A G55U, the self-cleavage was 0.32.

As for G33U A77G, the self-cleavage was determined as 1.78.

Regarding G33U A77C, the self-cleavage worked out at 0.83.

Turning to A31G U39A, the self-cleavage was determined as 0.49.

In the case of A31G U39G, the self-cleavage came to 1.37.

Turning to G32C U109A, the self-cleavage came out at 1.56.

In the case of G34A A129G, the self-cleavage was 1.08.

In the case of G34U A50U, the self-cleavage turned out to be 0.39.

For the variant G34U A124U, the self-cleavage stood at 1.6.

In the case of G32U U91G, the self-cleavage was found to be 0.1.

For A31G G35C, the self-cleavage came out at 1.15.

On to G34C U130C, for which the self-cleavage came to 0.88.

With A31G U87C, the self-cleavage came out at 0.22.

As to A31G U102C, the self-cleavage was determined as 0.35.

With A31G U143C, the self-cleavage was 1.04.

On to G33U C90G, for which the self-cleavage came out at 0.07.

G34A G126A: the self-cleavage was determined as 1.68.

For the variant A31G G114A, the self-cleavage was found to be 1.09.

On to G32A U115A, for which the self-cleavage was 1.5.

On to G32A U115C, for which the self-cleavage worked out at 0.95.

For G34A A67C, the self-cleavage turned out to be 0.03.

Regarding G35A A42G, the self-cleavage stood at 1.17.

Regarding G32C A42U, the self-cleavage is 1.67.

Consider G35A A78G, for which the self-cleavage came to 0.9.

G35A C131U: the self-cleavage turned out to be 1.67.

Consider G32A U112C, for which the self-cleavage was 1.36.

As to G33U G144A, the self-cleavage turned out to be 1.21.

For the variant G34U A67G, the self-cleavage stood at 0.54.

On to G34A U143G, for which the self-cleavage was 1.64.

On to G32A U104A, for which the self-cleavage is 1.17.

On to G33A U108C, for which the self-cleavage stood at 1.47.

For G35A A142G, the self-cleavage worked out at 1.14.

In the case of G34A C66U, the self-cleavage was found to be 0.05.

As to A31U, the self-cleavage came to 1.03.

Regarding A31C, the self-cleavage was 1.43.

Regarding A31G, the self-cleavage came out at 1.11.

For the variant G34A A140U, the self-cleavage amounted to 1.29.

Regarding G33U U115A, the self-cleavage is 1.38.

G32U A65G: the self-cleavage was 0.12.

Take G34A G54A: the self-cleavage is 0.78.

For A31U U62C, the self-cleavage was 0.12.

For G32U U45A, the self-cleavage turned out to be 1.17.

On to G33U A140G, for which the self-cleavage is 1.83.

Take A31U A138U: the self-cleavage is 1.4.

On to G32U U143C, for which the self-cleavage turned out to be 1.1.
